Test results from patent publication US20250042994A1 (HAINAN SIMCERE ZAIMING PHARMACEUTICAL, published 2025).

T1: human CD19 exon1-3-His tag protein (human, UniProt P15391 20-186, limits assumed)
T1 construct: membrane-distal part of the extracellular region, made in HEK293E cells; not shown: His tag
T1 sequence (looked up): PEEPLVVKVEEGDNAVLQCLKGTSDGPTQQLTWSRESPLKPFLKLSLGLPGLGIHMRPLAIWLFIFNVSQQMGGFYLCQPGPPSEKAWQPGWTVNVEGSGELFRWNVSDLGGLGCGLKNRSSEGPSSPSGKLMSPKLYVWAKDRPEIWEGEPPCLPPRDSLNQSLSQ

T2: Human CD19-his protein (human, UniProt P15391 20-291)
T2 construct: bought protein; also called recombinant human CD19-His; CD19 full-length protein; not shown: His tag
T2 sequence (looked up): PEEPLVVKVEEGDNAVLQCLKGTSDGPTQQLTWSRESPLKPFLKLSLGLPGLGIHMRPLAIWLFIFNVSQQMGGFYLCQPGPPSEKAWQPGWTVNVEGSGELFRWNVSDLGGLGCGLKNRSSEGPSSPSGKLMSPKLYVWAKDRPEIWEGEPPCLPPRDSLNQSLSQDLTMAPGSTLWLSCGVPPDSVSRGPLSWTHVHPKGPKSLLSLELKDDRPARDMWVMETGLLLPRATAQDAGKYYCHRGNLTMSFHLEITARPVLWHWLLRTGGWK


What was measured:
[1] = biological target: T1, human CD19 exon1-3-His tag protein; experiment: ELISA on coated human CD19 exon 1-3-His
Experimental: Human CD19-his protein (purchased from ACROBiosystems, catalog number: CD9-H52H2) was diluted with PBS to a final concentration of 4 μg/mL, and then added to a 96-well ELISA plate at 100 μl/well. The plate was sealed with a plastic film and incubated overnight at 4° C., the plate was washed 2 times with PBS the next day, and then a blocking solution [PBS+2% (w/w) BSA] was added for blocking at room temperature for 2 h. The blocking solution was poured off, and 100 nM gradiently diluted CD19 chimeric antibody or control antibody was added at 50 μl/well. After incubation at 37° C. for 2 h, the plate was washed 3 times with PBS. […] TMB substrate was added at 50 μl/well, and incubated at room temperature for 10 min, and then a stop solution (1.0 N HCl) was added at 50 μl/well. The OD450 nm values were read by an ELISA microplate reader (Multimode Plate Reader, EnSight, purchased from Perkin Elmer).
CD19 protein contains 4 exons in the extracellular region, in which exons 1-3 are located at the membrane-distal end and exon 4 is located at the membrane-proximal end. […] To identify the distribution of antigen binding epitopes of the chimeric antibodies, human CD19 exon 1-3-His (membrane-distal end) was used to coat at 2 μg/mL according to the ELISA method in example 5.1.

[2] = biological target: T2, Human CD19-his protein; experiment: SPR Biacore, Ab captured on Protein A, CD19-His analyte
Outline: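 Antibodies were captured on a Protein A chip at 25 °C in HBS-EP+. Human CD19-His was injected for 240 s at 30 μl/min at 5 concentrations from 200 nM (1:1 dilutions), with dissociation up to 600 s. Data were double-referenced and fitted to a Langmuir 1:1 model for apparent KD.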

binding result [1] | Kd [2] [nM] | koff [2] [s⁻¹] | kon [2] [M⁻¹ s⁻¹] | Binder
no binding (tested: 100 nM) | 0.362 | 0.000171 | 472000 | F4.18.13 (antibody, human IgG1, V domains shown, human-murine chimeric antibody, human IgG1 constant) VH: QVQLQQSGPELVKPGASVKISCKASGYAFSSFWMNWVKQRPGEGLEWIGRIYPGDGDTNYNGKFKGKATLTADDSSSTAYMQLSSLTSVDSAVYFCAREVIAAVVTTDFDYWGQGTTLTVSS VL: DIQMTQTTSSLSASLGDRVTISCRTSQDISNYLNWYLQKPDGTVKLLIYYTSGLHSGVPSRFSGSGSGTDYSLTISNLEPEDIATYFCQQGKTLPYTFGGGTKLEIK
no binding (tested: 100 nM) | 13.4 | 0.00239 | 179000 | F4.41.1 (antibody, human IgG1, V domains shown, human-murine chimeric antibody, human IgG1 constant) VH: QVQLQQSGAELVRPGTSVKVSCKASGYAFTNYLIEWVKQRPGQGLEWIGVINPGSGDTLYNEKFKGKATLTADKSSTTAYMQLSGLTSDVSAIYFCARSPPITTIVADYFDYWGQGTTLTVSS VL: DIQMTQTTSSLSASLGDRVTISCRASQDISNYLNWYQQKPDGTVKLLIYYTSRLHSGVPSRFSGSGSGADYSLTISNLEQEDIATYFCQQGKTLPYTFGGGTKLEIK
no binding (tested: 100 nM) | 3.45 | 0.000452 | 131000 | F4.33.12 (antibody, human IgG1, V domains shown, human-murine chimeric antibody, human IgG1 constant) VH: QVQLQQSGAELVRPGSSVKISCKGSGYAFSSYWMNWVKQRPGQGLEWIGQIYPGDGDTNYNGKFKGKATLTADKSSSTAYMQLSSLTSEDSAVYFCARAGFYYGSDSSMDYWGQGTSVTVSS VL: not shown
no binding (tested: 100 nM) | 9.47 | 0.0019 | 201000 | F4.4.6 (antibody, human IgG1, V domains shown, human-murine chimeric antibody, human IgG1 constant) VH: QVQLQQSGAELARPGASVKLSCKASGYTFTSYWMQWVKQRPGQGLEWIGAIYPGDGDSRYTQKFKGKATLTADKSSSTAYMQLSSLASEDSAVYYCARSTTTVLGNNFEYWGQGTTLTVSS VL: QIVLTQSPAIMSALPGEKVTMTCSASSSVSSMHWYQQKSGTSPKRWIYDTSKLASGVPARFSGSGSGTSYSLTISSMEAEDAATYYCQQWSSNPWTFGGGTKLEIK
no binding (tested: 100 nM) | 17.6 | 0.00128 | 73000 | F4.49.11 (antibody, human IgG1, V domains shown, human-murine chimeric antibody, human IgG1 constant) VH: DVQLRASGPGLVKPSQSLSLTCSVTGYSITSGYYWNWIRQFPGNKLEWMGCISYDGTNNYNPSLKNRISFTRDTSKNQFFLNLNSVTTEDSATYYCARRVYYRYDGVVDYWGQGTSVTVSS VL: ENVLTQSPAIMSASPGEKVTMTCSASSSVSYIHWYQQKSSTAPKLWIYDTSKLASGVPGRFSGSRSRNSYSLTISSMEAEDVATYYCFQGSGYPLTFGSGTKLEIK
no binding (tested: 100 nM) | 15.3 | 0.00351 | 229000 | F4.35.5 (antibody, human IgG1, V domains shown, human-murine chimeric antibody, human IgG1 constant) VH: EIQLQQSGPELVKPGASVKVSCKASGYAFTSYNMYWVKQSHGKSLEWIGYIDPYNGDTRYNQKFKGKATLTVDKSSSTAYMHLNSLTSEDSAVYYCTRSGTGRDYWGQGTTLTVSS VL: QIVLTQSPAIMSASPGEKVTMTCSASSSISYMFWFQQKPGSSPRLLIYDTSSLASGVPVRFSGSGSGTSYTLTISRMEAEDAATYYCQQWSNYPYTFGGGTKLEMK
no binding (tested: 100 nM) | 0.926 | 0.00017 | 184000 | F4.78.1 (antibody, human IgG1, V domains shown, human-murine chimeric antibody, human IgG1 constant) VH: QVQIQQSGAELARPGASVKLSCKASGYTFTNYWMQWIKQRPGQGLEWIGAIYPGDGDTRYTQKFKGKATLTADKSSSTAYMQLSSLASEDSAVYYCAREEVWSPYGMDYWGQGTSVTVSS VL: QIVLTQSPAIMSASPGEKVTITCSASSSVSYMGWFQQKPGTSPKLWIYSTSNLASGVPARFSGSGSGTSYSLTISRMEAEDAATYYCQQRSIYPLTFGAGTKLELK
no binding (tested: 100 nM) | 5.94 | 0.00147 | 248000 | F4.22.6 (antibody, human IgG1, V domains shown, human-murine chimeric antibody, human IgG1 constant) VH: QVQLQQSGPELVKPGASVKISCKASGYAFSSFWMNWVKQRPGQGLEWIGRIYPGDGDTNYNGKFKGKATLTADKSSTTAYMHLSSLTSVDSAVYFCTRSVITAVVDWYFDVWGAGTTVTVSS VL: QIVLSQSPAILSASPGEKVTLTCRASSSVNFMHWYQQKPGSSPKPWIYATSNLASGAPARFSGSGSGTSYSLTISRVEAEDAAAYYCQQWSSYPIFTFGSGTKLEIK
no binding (tested: 100 nM) | 13.9 | 0.002 | 143000 | F4.58.6 (antibody, human IgG1, V domains shown, human-murine chimeric antibody, human IgG1 constant) VH: QVQLQQPGAELVKPGASVKLSCKASGYTFTSYWMHWVKQRPGQGLEWIGEIDPSDSYSNYNQKFKGKATLTVDKSSSTAYMQLSSLTSEDSAVYYCARSNYGSSYGYFDVWGAGTTVTVSS VL: QIVLTQSPAIMSASPGEKVTMTCSVSSSLSYMHWYQQKPGTSPKRWIYDTSKLASGVPARFSGSGSGTSYSLTISSMEAEDAATYYCHQRSSYPTFGGGTKLEIK
no binding (tested: 100 nM) | 1.9 | 0.000388 | 205000 | F4.191.1 (antibody, human IgG1, V domains shown, human-murine chimeric antibody, human IgG1 constant) VH: QVQLQQPGAELVRPGASVKLSCKASGYTFTSYWINWVKQRPGQGLEWIGNIHPSDSYTNYNQKFKDKATLTVDKSSSTAYMQFSSPTSEDSAVYYCTREDYYYGSNYDAMDYWGQGTSVTVSS VL: DIVMTQSHKFMSTSVGDRVNITCKASQDVGSSVAWYQQKPGQSPKLLIYWASTRHAGVPDRFTGSGSGADFTLTISNVQSEDLADYFCQQYSTYPLTFGAGTKLELK
no binding (tested: 100 nM) | 0.487 | 0.000129 | 264000 | F4.48.12 (antibody, human IgG1, V domains shown, human-murine chimeric antibody, human IgG1 constant) VH: QMQLKESGPGLVAPSQSLSITCTVSGFSLTDYGVSWIRQPPGKGLEWLGVIWGSGSTFYNSALTSRLSISKDNSKSQVFLKMNSLQTADTAMYFCAKHHYYGGSFAMDYWGQGTSVTVSS VL: DIQMTQASSSLSASLGDRVTISCKTSQDISNYLNWYQQKPDGTFKLLIHYTSRLHSGVPSRFSGSGSGSDYSLTISNLEREDIATYFCQQGNSLPYTFGGGTKLEMK
no binding (tested: 100 nM) | 9.11 | 0.00327 | 359000 | F4.37.6 (antibody, human IgG1, V domains shown, human-murine chimeric antibody, human IgG1 constant) VH: QVQLQQSGAELARPGASVKLSCKASGYTFTSFWMQWLKQRPGQGLEWIGTIYPGDGDTRYTQKFKGKATLTADKSSNTAYMQLSSLASEDSAVYYCARGALSNYGGFAYWGQGTLVTVSA VL: NIVLTQSPASLAVSLGQRATISCRASESVDSYGHSFMHWYQQKPGQPPKLLIYLASNLESGVPARFSGSGSRTDFTLTIDPVEADDAATYYCQQNNEDPWTFGGGTKLEIK
no binding (tested: 100 nM) | 0.974 | 8.84e-05 | 90800 | F3.133.14 (antibody, human IgG1, V domains shown, human-murine chimeric antibody, human IgG1 constant) VH: QVQLQQPGAELVMPGASVKLSCKASGYTFTNYWMHWVKQRPGQGLEWIGEIDPSDYYANYNQKFKGKATLTVDKSSSTAYMQLSSLTSEDSAVYYCARSHYYANSYNYWGQGTTLTVSS VL: EIELTQSPTTMAASPGEKITITCSASSSISSDYLHWYQQKPGFSPKLLIYRTSNLASGLPARFSGSGSGTSYSLTIGTMEAEDVATYYCQQGSSVPRMLTFGAGTKLELK
no binding (tested: 100 nM) | 2.72 | 0.000949 | 348000 | F4.15.9 (antibody, human IgG1, V domains shown, human-murine chimeric antibody, human IgG1 constant) VH: QVQLQQSGPELVKPGASVKISCKASGYAFSSSWMNWLKQRPGQGLEWIGRIYPGDGDTNYNGKFKGKATLTADESSSTAYMQLSSLTSVDSAVYFCARGITTIITIAWFASWGQGTLVTVSA VL: QIVLSQSPTILSASPGEKVTMTCRASSSVSYMHWYQQKPGSSPKPWIYATSNLASGVPPRFSGSGSGTSYSLTISRVGAEDAATYYCQQWSSDPWTFGGGTKLEIK
no binding (tested: 100 nM) | 0.904 | 0.000167 | 185000 | F4.21.2 (antibody, human IgG1, V domains shown, human-murine chimeric antibody, human IgG1 constant) VH: QVQLKQSGPGLVQPSQSLSITCTVSGFSLSTYGVHWVRQSPGRGLEWLGVIWIGGTTDYNAAFISRLTISKDNSRGQVFFKMDSLQANDTAIYYCARKGYYKYDGGYYYAMDYWGQGTSVTVSS VL: DIQMTQSSSYLSVSLGGRVTITCKASDHINNWLAWYQQKPGNAPWLLISGATSLETGVPSRFSGSGSGKDYTLSISSLQTEDVATYYCQQYWSTPLTFGAGTKLELK
